Results from patent US6806079.

How the values were obtained:
[1] = target: Rhesus-D antigen (human) (UniProt Q02161); test: phage bound to Rh-D positive red blood cells, eluted with citric acid, titred on ampicillin plates; titre prior to selection 1.0 × 10^8
[2] = target: bovine thyroglobulin (Sigma) (bovine) (UniProt P01267); test: phage ELISA, 200 µg/ml thyroglobulin coating
[3] = target: T1, turkey egg-white lysozyme (turkey, UniProt P00703 19-147); test: heading of the table of deduced sequences
T1 construct: also called turkey egg lysozyme; turkey lysozyme
T1 sequence (P00703 19-147 limits assumed): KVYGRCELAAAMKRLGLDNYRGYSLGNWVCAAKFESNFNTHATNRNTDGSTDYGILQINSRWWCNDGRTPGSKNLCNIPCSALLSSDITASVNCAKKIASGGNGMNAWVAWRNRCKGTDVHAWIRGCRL

Chain of Rhesus-D antigen (human) (Q02161 2-417): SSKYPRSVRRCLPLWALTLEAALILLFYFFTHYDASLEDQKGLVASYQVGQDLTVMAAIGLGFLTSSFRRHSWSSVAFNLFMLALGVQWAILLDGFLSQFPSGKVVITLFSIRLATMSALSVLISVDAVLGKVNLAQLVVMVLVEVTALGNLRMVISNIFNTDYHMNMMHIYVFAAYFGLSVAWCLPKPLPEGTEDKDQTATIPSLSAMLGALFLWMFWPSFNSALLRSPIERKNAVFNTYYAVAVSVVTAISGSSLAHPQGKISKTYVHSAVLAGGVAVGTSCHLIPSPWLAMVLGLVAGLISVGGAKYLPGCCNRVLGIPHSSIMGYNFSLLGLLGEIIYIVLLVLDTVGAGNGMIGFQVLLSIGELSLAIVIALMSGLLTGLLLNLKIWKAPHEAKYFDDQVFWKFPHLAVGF
Chain of bovine thyroglobulin (Sigma) (bovine) (P01267 20-2769 limits assumed): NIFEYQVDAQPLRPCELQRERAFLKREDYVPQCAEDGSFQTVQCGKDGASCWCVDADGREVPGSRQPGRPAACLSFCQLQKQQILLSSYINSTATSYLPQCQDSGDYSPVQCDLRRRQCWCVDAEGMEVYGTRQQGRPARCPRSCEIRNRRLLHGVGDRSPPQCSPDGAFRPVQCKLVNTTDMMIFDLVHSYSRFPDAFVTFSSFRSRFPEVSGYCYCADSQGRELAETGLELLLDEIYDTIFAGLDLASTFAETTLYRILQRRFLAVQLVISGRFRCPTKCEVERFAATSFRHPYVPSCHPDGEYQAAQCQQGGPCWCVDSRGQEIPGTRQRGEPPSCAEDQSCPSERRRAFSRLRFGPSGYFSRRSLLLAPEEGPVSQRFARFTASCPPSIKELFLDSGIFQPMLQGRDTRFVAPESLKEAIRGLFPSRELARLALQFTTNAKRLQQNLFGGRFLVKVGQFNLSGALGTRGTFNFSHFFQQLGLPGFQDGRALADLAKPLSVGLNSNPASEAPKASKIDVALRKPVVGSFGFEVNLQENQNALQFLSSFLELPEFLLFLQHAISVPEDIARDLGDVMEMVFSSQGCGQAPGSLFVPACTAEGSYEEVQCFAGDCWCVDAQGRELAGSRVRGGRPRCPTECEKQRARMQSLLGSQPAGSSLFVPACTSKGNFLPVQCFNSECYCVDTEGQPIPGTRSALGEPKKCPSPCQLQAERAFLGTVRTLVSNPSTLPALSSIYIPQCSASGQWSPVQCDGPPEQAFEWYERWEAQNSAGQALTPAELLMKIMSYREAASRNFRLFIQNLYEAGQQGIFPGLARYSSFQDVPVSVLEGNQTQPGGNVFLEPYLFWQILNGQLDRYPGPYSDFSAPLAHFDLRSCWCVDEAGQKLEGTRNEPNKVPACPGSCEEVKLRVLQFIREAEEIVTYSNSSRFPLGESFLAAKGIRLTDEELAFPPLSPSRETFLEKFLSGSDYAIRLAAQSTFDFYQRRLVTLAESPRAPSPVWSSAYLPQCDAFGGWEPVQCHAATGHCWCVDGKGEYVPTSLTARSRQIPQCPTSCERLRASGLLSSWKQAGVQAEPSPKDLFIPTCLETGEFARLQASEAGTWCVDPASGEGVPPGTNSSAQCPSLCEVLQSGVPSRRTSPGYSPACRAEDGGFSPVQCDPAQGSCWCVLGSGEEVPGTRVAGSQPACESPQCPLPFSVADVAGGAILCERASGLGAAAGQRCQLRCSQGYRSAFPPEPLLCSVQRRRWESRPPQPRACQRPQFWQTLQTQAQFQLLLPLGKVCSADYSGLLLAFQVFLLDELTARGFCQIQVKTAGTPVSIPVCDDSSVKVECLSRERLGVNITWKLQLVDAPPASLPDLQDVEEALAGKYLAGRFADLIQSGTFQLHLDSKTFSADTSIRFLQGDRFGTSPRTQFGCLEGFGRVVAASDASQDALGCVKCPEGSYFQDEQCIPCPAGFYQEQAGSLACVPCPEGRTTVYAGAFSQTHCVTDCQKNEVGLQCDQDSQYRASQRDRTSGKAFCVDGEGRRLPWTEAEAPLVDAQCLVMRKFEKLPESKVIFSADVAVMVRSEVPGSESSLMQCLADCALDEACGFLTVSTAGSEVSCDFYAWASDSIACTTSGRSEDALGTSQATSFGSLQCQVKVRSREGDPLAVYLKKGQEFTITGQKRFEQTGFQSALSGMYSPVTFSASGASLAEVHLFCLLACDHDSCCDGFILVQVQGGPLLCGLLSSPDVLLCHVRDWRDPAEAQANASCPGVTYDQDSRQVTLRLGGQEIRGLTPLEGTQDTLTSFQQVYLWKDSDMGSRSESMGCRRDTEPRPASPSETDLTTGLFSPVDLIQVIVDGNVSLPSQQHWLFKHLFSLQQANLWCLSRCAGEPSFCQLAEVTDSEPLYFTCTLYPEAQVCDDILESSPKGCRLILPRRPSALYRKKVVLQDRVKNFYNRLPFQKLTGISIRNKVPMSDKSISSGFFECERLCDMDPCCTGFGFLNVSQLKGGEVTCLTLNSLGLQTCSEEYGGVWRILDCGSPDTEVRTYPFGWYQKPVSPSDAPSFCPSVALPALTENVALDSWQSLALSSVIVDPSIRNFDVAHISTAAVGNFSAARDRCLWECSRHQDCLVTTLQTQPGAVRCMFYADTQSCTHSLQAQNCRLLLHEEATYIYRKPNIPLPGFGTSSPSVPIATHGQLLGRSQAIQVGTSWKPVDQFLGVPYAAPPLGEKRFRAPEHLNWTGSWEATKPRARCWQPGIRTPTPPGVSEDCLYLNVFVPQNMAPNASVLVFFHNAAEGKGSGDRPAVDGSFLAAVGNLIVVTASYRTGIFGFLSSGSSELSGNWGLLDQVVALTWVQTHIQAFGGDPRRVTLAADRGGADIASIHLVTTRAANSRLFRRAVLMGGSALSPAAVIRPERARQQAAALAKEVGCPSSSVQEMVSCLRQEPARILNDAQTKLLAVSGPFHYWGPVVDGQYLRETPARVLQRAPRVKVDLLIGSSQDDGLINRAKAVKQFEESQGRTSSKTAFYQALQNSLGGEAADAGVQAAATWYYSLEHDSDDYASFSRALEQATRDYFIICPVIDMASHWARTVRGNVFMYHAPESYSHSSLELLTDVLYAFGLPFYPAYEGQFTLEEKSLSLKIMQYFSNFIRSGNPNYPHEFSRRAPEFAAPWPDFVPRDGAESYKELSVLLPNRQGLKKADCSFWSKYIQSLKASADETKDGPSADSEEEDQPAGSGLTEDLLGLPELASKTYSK

Molecule: Fog-B Fab fragment displayed on the surface of phage (pHEN1)
- titre of phage eluted after selection on Rh-D positive cells [1]: 6e+06

Molecule: phage control (vector pCAT3) (from UniProt P03661 19-424)
- ELISA OD [2]: 0.07 O.D.

B1: Lysozyme binder VH14.1 / VL14.1 (scFv, V domains shown)
VH: QVQLQESGPGLVKPSETLSLVCTVSGGSLSFSYWGWIRQPPGKGLEWIGYISHRGTDYNSSLQSRVTISADTSKNQFSLKLSSVTAADTAVYYCARSFSNSFFFGYWGQGT
VL: SSELTQDPAVSVAFGQTVRITCQGDSLRSSYASWYQQKPGQAPLLVIYGENSRPSGIPDRFSGSSSGNTASLTITGAQAEDEADYYCNSRDSRGTHLEVFGG
notes: Human scFv in pHEN1 on phage; Paired by common number
- binding result [3]: binds
